According to PMC7244319:

Assays:
GST-mLysRS = GST-mLysRS (Mus musculus, UniProt Q99MN1 1-595); test: streptavidin pull-down
GST-LysRS (human) = GST-LysRS (human) (Homo sapiens, UniProt Q15046 1-597); test: streptavidin pull-down, WB quantification
GST-cGAS (human) = GST-cGAS (human) (Homo sapiens, UniProt Q8N884 1-522); test: streptavidin pull-down, WB quantification
GST-cGAS (human), sequence (Q8N884 whole entry): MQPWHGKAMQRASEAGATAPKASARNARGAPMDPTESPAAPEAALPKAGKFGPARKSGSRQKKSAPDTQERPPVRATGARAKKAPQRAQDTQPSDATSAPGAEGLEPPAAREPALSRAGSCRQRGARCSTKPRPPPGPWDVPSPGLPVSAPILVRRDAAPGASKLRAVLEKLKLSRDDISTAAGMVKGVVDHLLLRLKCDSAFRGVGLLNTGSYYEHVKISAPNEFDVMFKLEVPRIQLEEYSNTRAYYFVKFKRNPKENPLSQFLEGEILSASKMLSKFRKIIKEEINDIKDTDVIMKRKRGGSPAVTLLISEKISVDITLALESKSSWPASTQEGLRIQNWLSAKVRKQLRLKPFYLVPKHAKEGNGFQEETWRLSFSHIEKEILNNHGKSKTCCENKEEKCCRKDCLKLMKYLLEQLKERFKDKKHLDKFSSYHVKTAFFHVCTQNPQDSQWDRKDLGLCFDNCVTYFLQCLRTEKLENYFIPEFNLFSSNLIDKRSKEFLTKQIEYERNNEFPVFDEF

GST-mLysRS, sequence (Q99MN1 whole entry): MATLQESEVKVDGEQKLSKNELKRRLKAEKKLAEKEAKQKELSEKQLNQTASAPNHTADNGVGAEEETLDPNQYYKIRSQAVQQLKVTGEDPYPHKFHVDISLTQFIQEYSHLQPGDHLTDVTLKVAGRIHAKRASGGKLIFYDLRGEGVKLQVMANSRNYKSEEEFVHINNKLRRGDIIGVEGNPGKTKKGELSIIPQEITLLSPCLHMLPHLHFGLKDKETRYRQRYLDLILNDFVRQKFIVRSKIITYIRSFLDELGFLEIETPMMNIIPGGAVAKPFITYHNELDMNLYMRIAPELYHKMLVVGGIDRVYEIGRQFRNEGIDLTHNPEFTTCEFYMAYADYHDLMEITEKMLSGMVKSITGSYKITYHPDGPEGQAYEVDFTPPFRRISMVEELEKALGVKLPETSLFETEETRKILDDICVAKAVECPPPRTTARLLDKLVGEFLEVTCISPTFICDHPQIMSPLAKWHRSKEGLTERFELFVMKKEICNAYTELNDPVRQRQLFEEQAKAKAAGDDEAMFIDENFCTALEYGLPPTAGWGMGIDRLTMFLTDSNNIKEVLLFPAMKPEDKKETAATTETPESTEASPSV
GST-LysRS (human), sequence (Q15046 whole entry): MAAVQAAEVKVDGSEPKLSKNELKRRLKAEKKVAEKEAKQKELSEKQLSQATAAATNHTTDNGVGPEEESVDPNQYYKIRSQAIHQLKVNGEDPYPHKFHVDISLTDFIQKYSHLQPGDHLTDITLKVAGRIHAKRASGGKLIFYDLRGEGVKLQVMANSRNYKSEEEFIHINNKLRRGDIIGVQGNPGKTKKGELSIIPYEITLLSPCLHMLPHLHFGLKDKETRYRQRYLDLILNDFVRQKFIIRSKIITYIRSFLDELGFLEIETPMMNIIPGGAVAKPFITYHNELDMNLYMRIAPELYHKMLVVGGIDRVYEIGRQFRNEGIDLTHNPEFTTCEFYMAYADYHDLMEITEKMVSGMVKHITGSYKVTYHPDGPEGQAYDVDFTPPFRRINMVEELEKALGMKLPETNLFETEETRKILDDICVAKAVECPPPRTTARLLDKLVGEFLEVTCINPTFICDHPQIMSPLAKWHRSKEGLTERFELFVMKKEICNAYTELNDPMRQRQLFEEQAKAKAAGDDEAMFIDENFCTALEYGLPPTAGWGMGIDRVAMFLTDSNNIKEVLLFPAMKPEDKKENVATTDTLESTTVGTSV

B1: BRNA:DNA hybrid (BRNA 2/DNA 9) (DNA:RNA)
RNA: UUUCAAUUCCUUUUAGGAUUAAUCUUGAAGAUAGAGUUAA
DNA: TTAACTCTATCTTCAAGATTAATCCTAAAAGGAATTGAAA
- binding result (GST-mLysRS): binds
- Kd (GST-LysRS (human)): ~11.3 nM
- Kd (GST-cGAS (human)): ~8.05 nM
